Data published in the supplement of paper PMC9233669.
Fewer inactive variants are shown than the library holds.

Columns and labels:
biotinyl-Ile-oxazolone = test: self-aminoacylation, catalytic enhancement (BIO) (fold over background); higher = more active; k-Seq, kA / k0A0; sequences stand for … in GGGAAUGGAUCCACAUCUACGAAUUC…UUCACUGCAGACUUGACGAAGCUG
Outline: (§1)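 The uncatalyzed rate is the low-activity peak of a bimodal Gaussian fit, and catalytic enhancement is median kA divided by it. The kA values came from pseudo-first-order fits, with 1000 bootstraps, of per-sequence fraction reacted measured by streptavidin capture, triplicate qPCR and Illumina sequencing. Mutagenized RNA pools with a 21-nt variable region (0.43 μM) were reacted with each biotinyl-aminoacyl-oxazolone at 2–1250 μM in 50 μL HEPES/NaCl/KCl/MgCl2/CaCl2 buffer with 5% acetonitrile, pH 6.9–7.0, for 90 minutes at room temperature.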

biotinyl-Trp-oxazolone = test: self-aminoacylation, catalytic enhancement (BWO) (fold over background); higher = more active; k-Seq, kA / k0A0; sequences stand for … in GGGAAUGGAUCCACAUCUACGAAUUC…UUCACUGCAGACUUGACGAAGCUG
Outline: as §1

biotinyl-Val-oxazolone = test: self-aminoacylation, catalytic enhancement (BVO) (fold over background); higher = more active; k-Seq, kA / k0A0; sequences stand for … in GGGAAUGGAUCCACAUCUACGAAUUC…UUCACUGCAGACUUGACGAAGCUG
Outline: as §1

biotinyl-Leu-oxazolone = test: self-aminoacylation, catalytic enhancement (BLO) (fold over background); higher = more active; k-Seq, kA / k0A0; sequences stand for … in GGGAAUGGAUCCACAUCUACGAAUUC…UUCACUGCAGACUUGACGAAGCUG
Outline: as §1

biotinyl-Phe-oxazolone = test: self-aminoacylation, catalytic enhancement (BFO) (fold over background); higher = more active; k-Seq, kA / k0A0; sequences stand for … in GGGAAUGGAUCCACAUCUACGAAUUC…UUCACUGCAGACUUGACGAAGCUG
Outline: as §1

biotinyl-Met-oxazolone = test: self-aminoacylation, catalytic enhancement (BMO) (fold over background); higher = more active; k-Seq, kA / k0A0; sequences stand for … in GGGAAUGGAUCCACAUCUACGAAUUC…UUCACUGCAGACUUGACGAAGCUG
Outline: as §1

Sequence | self-aminoacylation (biotinyl-Ile-oxazolone) | self-aminoacylation (biotinyl-Trp-oxazolone) | self-aminoacylation (biotinyl-Val-oxazolone) | self-aminoacylation (biotinyl-Leu-oxazolone) | self-aminoacylation (biotinyl-Phe-oxazolone) | self-aminoacylation (biotinyl-Met-oxazolone)
CUGCUUCACACAAUCGGUCUG [Fam1A.1 aminoacylation ribozyme variant] | 0.733 | 0.824 | 0.757 | 0.836 | 0.641 | 0.911
CUUACCAUGGUCAUCGAGUGA [Fam2.1 aminoacylation ribozyme variant] | 3.16 | 7.03 | 3 | 5.9 | 14.4 | 5.89
CUUACCCAGGUCAUCGAGUGA [Fam2.1 aminoacylation ribozyme variant] | 3.04 | 5.54 | 3.6 | 4.56 | 4.25 | 4.94
CUUACCCUGGCCAUCGAGUGA [Fam2.1 aminoacylation ribozyme variant] | 2.78 | 3.51 | 2.65 | 4.34 | 9.12 | 2.99
CUUACCCUGGGCAUCGAGUGA [Fam2.1 aminoacylation ribozyme variant] | 2.57 | 6.01 | 3.33 | 7.09 | 20.7 | 5.55
CUUACCCUGGUAAUCGAGUGA [Fam2.1 aminoacylation ribozyme variant] | 3.22 | 8.08 | 3.18 | 7.47 | 24.3 | 6.18
CUUACCCUGGUCAGCGAGUGA [Fam2.1 aminoacylation ribozyme variant] | 3.42 | 7.19 | 3.69 | 6.11 | 29.2 | 4.38
CUUACCCUGGUCAUCGAGCGA [Fam2.1 aminoacylation ribozyme variant] | 1.36 | 2.72 | 1.35 | 1.96 | 1.09 | 2.13
CUUACCCUGGUCAUCGGGUGA [Fam2.1 aminoacylation ribozyme variant] | 5.25 | 13.9 | 7.68 | 17.1 | 93.6 | 16
CUUACCCUGGUUAUCGAGUGA [Fam2.1 aminoacylation ribozyme variant] | 3.35 | 8.54 | 3.58 | 7.11 | 23.2 | 6.78
CUUAUCCUGGUCAUCGAGUGA [Fam2.1 aminoacylation ribozyme variant] | 3.22 | 6.96 | 3.42 | 6.22 | 7.87 | 6.26
CUUCACAUAGGUCAUCGGGUG [Fam2.2 aminoacylation ribozyme variant] | 3.77 | 5.58 | 3.98 | 6.86 | 33 | 5.24
CUUCACCUAGGGCAUCGGGUG [Fam2.2 aminoacylation ribozyme variant] | 2.75 | 4.25 | 3.04 | 3.99 | 17.5 | 2.91
CUUCACCUAGGUCAUCGAGUG [Fam2.2 aminoacylation ribozyme variant] | 4.29 | 4.55 | 4.22 | 7.37 | 9.18 | 5.78
CUUCACCUAGGUCAUCGGGGG [Fam2.2 aminoacylation ribozyme variant] | 2.31 | 3.57 | 2.37 | 1.86 | 3.92 | 2.35
CUUCACCUAGGUCAUCUGGUG [Fam2.2 aminoacylation ribozyme variant] | 1.58 | 2.15 | 1.74 | 2.25 | 4.76 | 1.79
CUUCACCUAGGUCGUCGGGUG [Fam2.2 aminoacylation ribozyme variant] | 2.2 | 2.19 | 2.54 | 2.43 | 9.55 | 2.39
CUUCACCUAGGUGAUCGGGUG [Fam2.2 aminoacylation ribozyme variant] | 3.56 | 4.93 | 3.9 | 4.03 | 20.6 | 3.91
CUUCACCUAGGUUAUCGGGUG [Fam2.2 aminoacylation ribozyme variant] | 3.13 | 3.63 | 3.51 | 4.8 | 12.2 | 5.11
CUUCACCUCGGUCAUCGGGUG [Fam2.2 aminoacylation ribozyme variant] | 3.54 | 5.07 | 4.37 | 5.57 | 44.6 | 5.17
CUUCACCUUGGUCAUCGGGUG [Fam2.2 aminoacylation ribozyme variant] | 3.13 | 5.5 | 4.27 | 5.93 | 45.5 | 5.39
CUUCUCCAAACAAUCGGUCUG [Fam1A.1 aminoacylation ribozyme variant] | 0.67 | 0.962 | 0.831 | 0.723 | 1.26 | 0.772
CUUCUUCAAACAAUCGAUCUG [Fam1A.1 aminoacylation ribozyme variant] | 0.624 | 0.841 | 0.647 | 0.597 | 1.98 | 0.672
CUUCUUCAAACAAUCGGACUG [Fam1A.1 aminoacylation ribozyme variant] | 0.822 | 3.43 | 0.677 | 0.698 | 7.56 | 0.652
CUUCUUCAAACAAUCGGGCUG [Fam1A.1 aminoacylation ribozyme variant] | 1.29 | 4.55 | 1.06 | 1.43 | 5.81 | 1.25
CUUCUUCAAACAUUCGGUCUG [Fam1A.1 aminoacylation ribozyme variant] | 1.03 | 1.39 | 1.23 | 1.26 | 1.05 | 1.15
